Results taken from patent publication US20210317201A1 (Boehringer Ingelheim, published 2021).
Values joined by “and” are separate entries in the source; they are usually repeats but may differ in a detail not shown here. Equal values may be shown once.

Key:
human IL-12 = biological target: T1, human IL-12 (human, UniProt P29459 23-219; P29460 23-328); assay: cell-based or functional assay
T1 sequence (looked up) 1: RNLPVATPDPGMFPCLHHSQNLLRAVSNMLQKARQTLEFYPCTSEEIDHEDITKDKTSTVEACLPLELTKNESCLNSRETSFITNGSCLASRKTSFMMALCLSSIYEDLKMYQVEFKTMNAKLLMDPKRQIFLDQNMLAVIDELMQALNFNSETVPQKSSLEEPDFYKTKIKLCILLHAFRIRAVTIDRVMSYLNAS
T1 sequence (looked up) 2: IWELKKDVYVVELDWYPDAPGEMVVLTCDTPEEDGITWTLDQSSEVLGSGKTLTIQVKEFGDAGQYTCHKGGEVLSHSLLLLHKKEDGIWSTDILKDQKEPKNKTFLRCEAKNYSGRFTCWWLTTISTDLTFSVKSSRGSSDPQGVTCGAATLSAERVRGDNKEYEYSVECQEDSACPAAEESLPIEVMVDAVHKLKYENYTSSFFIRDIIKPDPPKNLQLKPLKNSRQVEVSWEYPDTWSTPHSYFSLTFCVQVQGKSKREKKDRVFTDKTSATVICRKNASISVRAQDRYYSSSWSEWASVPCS

[1] = biological target: T2, natural human IL-23 from activated THP-1 cells (human, UniProt P29460 23-328); assay: cell-based or functional assay
T2 sequence 1: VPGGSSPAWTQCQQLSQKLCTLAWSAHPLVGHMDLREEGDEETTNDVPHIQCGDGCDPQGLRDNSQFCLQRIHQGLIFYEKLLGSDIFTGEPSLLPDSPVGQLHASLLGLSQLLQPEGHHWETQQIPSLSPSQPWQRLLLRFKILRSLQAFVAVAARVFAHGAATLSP
T2 sequence 2: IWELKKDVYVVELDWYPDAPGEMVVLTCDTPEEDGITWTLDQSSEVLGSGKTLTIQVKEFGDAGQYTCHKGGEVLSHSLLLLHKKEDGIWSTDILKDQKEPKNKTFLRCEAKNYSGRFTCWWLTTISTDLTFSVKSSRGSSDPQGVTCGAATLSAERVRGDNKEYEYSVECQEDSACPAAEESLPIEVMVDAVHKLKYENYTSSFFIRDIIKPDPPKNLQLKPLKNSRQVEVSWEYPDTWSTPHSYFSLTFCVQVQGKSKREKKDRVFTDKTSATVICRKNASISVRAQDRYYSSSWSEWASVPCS

recombinant human IL-23 [2] = biological target: T3, recombinant human IL-23 (human, UniProt P29460 23-328); assay: cell-based or functional assay
T3 sequence 1: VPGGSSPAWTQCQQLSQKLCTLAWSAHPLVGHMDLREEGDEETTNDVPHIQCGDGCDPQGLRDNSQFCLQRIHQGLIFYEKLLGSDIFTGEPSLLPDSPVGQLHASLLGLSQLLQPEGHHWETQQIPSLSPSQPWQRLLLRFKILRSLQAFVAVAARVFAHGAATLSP
T3 sequence 2: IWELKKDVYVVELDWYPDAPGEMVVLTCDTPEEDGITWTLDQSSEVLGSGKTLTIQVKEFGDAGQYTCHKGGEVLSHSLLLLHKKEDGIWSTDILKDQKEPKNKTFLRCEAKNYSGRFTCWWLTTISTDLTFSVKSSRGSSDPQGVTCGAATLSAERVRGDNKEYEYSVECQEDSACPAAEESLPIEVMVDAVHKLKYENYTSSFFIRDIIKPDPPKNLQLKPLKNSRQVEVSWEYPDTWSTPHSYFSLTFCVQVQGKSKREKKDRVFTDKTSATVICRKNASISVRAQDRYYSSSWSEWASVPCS

Human IL-23 no linker = biological target: T4, Human IL-23 no linker (human, UniProt P29460 23-328); assay: SPR, ProteOn XPR36, global 1:1 fit
T4 construct: also called recombinant IL-23 without linker
T4 sequence 1: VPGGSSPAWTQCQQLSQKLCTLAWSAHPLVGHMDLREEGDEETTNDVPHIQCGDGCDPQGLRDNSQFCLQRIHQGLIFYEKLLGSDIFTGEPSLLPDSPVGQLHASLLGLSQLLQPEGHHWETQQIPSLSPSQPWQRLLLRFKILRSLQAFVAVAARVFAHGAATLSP
T4 sequence 2: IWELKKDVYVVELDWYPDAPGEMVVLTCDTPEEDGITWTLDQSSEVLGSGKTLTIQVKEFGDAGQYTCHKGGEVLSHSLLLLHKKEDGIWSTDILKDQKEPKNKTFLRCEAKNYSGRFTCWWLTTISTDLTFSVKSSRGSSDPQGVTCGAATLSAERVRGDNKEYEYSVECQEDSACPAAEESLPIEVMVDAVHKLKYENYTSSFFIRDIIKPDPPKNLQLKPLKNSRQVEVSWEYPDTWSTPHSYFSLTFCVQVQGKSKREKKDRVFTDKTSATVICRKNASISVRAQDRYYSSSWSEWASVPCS
Procedure: B) Affinities were measured for humanized antibodies derived from mouse antibody 6B8.

cynomologous IL-23 = biological target: T5, cynomologous IL-23 (cynomolgus monkey); assay: SPR, ProteOn XPR36, global 1:1 fit
T5 construct: also called cynomolgus IL-23; cynomolgus monkey IL-23

recombinant human IL-23 [3] = biological target: T3, recombinant human IL-23; assay: cell-based or functional assay; remark: listed apart in the source

B1: Chimeric 6B8 (antibody, V domains shown)
VH: QVQLQQSDAELVKPGTSVKTSCKISGNTFTDQTIHWMKQRPEQGLEWIGYIYPRDDSPKYNENFKGKATLTADKSSSTAYMQLNSLTSEDSAVYFCAIPDRSGYAWFIYWGQGTLVTVSS
VL: DIVMTQSHKFLSTSVGDRVTITCKASRDVAIAVAWYQQKPGQSPKLLLFWASTRHTGVPDRFTGSGSRTDFTLTISNVQSEDLADYFCHQYSSYPFTFGSGTKLEIK
With B1 the “Average pg/ml IFN-γ +/- Standard Deviation, human PHA-derived T cell blasts with 1 ng/ml IL-12 (no antibody: 532 +/- 51; unstimulated: 87 +/- 7)” value (human IL-12) was 523 pg/ml IFN-γ, the “IC50, IL-23 stimulated IL-17 production from mouse splenocytes” value (“IC50, IL-23 stimulated IL-17 production” for short) [1] was 0.005 nM and 0.002 nM and 0.006 nM and 0.003 nM and the “IC50, IL-23 stimulated IL-17 production” value (recombinant human IL-23 [2]) was 0.026 nM and 0.037 nM and 0.057 nM.

B2: Antibody A (antibody, human IgG1, kappa, L234A L235A, V domains shown)
VH: QVQLVQSGAEVKKPGSSVKVSCKASGYTFTDQTIHWMRQAPGQGLEWIGYIYPRDDSPKYNENFKGKVTITADKSTSTAYMELSSLRSEDTAVYYCAIPDRSGYAWFIYWGQGTLVTVSS
VL: DIQMTQSPSSLSASVGDRVTITCKASRDVAIAVAWYQQKPGKVPKLLIYWASTRHTGVPSRFSGSGSRTDFTLTISSLQPEDVADYFCHQYSSYPFTFGSGTKLEIKR
notes: Humanized 6B8, human IgG1-KO (L234A/L235A) / kappa; also called 6B8-IgG1KO-2 with IgK-66; 6B8CVH-02 / 6B8CVK-66
B2 was tested, and the Kd (Human IL-23 no linker) was under 0.001 nM, the “Average pg/ml IFN-γ +/- Standard Deviation, human PHA-derived T cell blasts with 1 ng/ml IL-12 (no antibody: 532 +/- 51; unstimulated: 87 +/- 7)” value (human IL-12) was 497 pg/ml IFN-γ and the Kd (cynomologous IL-23) was under 0.001 nM. For the same binder, the “IC50, IL-23 stimulated IL-17 production” value [1] was 0.001 nM and the “IC50, IL-23 stimulated IL-17 production” value (recombinant human IL-23 [2]) was 0.005 nM and 0.015 nM.

B3: Antibody B (antibody, human IgG1, kappa, L234A L235A, V domains shown)
VH: QVQLVQSGAEVKKPGSSVKVSCKASGFTFTDQTIHWVRQAPGQGLEWMGYIYPRDDSPKYNENFKGKVTLTADKSTSTAYMELSSLRSEDTAVYYCAIPDRSGYAWFIYWGQGTLVTVSS
VL: DIQMTQSPSSLSASVGDRVTITCKASRDVAIAVAWYQQKPGKVPKLLIYWASTRHTGVPSRFSGSGSRTDFTLTISSLQPEDVADYFCHQYSSYPFTFGSGTKLEIKR
notes: Humanized 6B8, human IgG1-KO (L234A/L235A) / kappa; also called 6B8-IgG1KO-5 with IgK-66; 6B8CVH-05 / 6B8CVK-66
Work on B3 yielded a Kd (Human IL-23 no linker) of under 0.001 nM, a koff (Human IL-23 no linker) of under 1e-06 s⁻¹ and a kon (Human IL-23 no linker) of 517000 M⁻¹ s⁻¹. For the same binder, the “Average pg/ml IFN-γ +/- Standard Deviation, human PHA-derived T cell blasts with 1 ng/ml IL-12 (no antibody: 532 +/- 51; unstimulated: 87 +/- 7)” value (human IL-12) was 537 pg/ml IFN-γ, the Kd (cynomologous IL-23) was under 0.001 nM and the koff (cynomologous IL-23) was under 1e-06 s⁻¹. The kon (cynomologous IL-23) was 2.99e+06 M⁻¹ s⁻¹, the “IC50, IL-23 stimulated IL-17 production” value [1] was 0.009 nM and 0.008 nM and the “IC50, IL-23 induced STAT3 phosphorylation in human DB cells (phospho-STAT3 ELISA)” value (from here on “IC50 … (phospho-STAT3 ELISA)”) (recombinant human IL-23 [3]) was 0.073 nM and 0.084 nM.

B4: Antibody C (antibody, human IgG1, kappa, L234A L235A, V domains shown)
VH: QVQLVQSGAEVKKPGSSVKVSCKASGYTFTDQTIHWMRQAPGQGLEWIGYIYPRDDSPKYNENFKGKVTITADKSTSTAYMELSSLRSEDTAVYYCAIPDRSGYAWFIYWGQGTLVTVSS
VL: DIQMTQSPSSLSASVGDRVTITCKASRDVAIAVAWYQQKPGKVPKLLLFWASTRHTGVPDRFSGSGSGTDFTLTISSLQPEDLADYYCHQYSSYPFTFGQGTKLEIKR
notes: Humanized 6B8, human IgG1-KO (L234A/L235A) / kappa; also called 6B8-IgG1KO-2 with IgK-65; 6B8CVH-02 / 6B8CVK-65
In the case of B4, the Kd (Human IL-23 no linker) is reported as 0.0363 nM, the koff (Human IL-23 no linker) is reported as 1.65e-05 s⁻¹ and the kon (Human IL-23 no linker) is reported as 454000 M⁻¹ s⁻¹. The “Average pg/ml IFN-γ +/- Standard Deviation, human PHA-derived T cell blasts with 1 ng/ml IL-12 (no antibody: 532 +/- 51; unstimulated: 87 +/- 7)” value (human IL-12) was 495 pg/ml IFN-γ, the Kd (cynomologous IL-23) was 0.0029 nM and the koff (cynomologous IL-23) was 9.36e-06 s⁻¹. The kon (cynomologous IL-23) was 3.23e+06 M⁻¹ s⁻¹, the “IC50, IL-23 stimulated IL-17 production” value [1] was 0.016 nM and 0.032 nM and the “IC50 … (phospho-STAT3 ELISA)” value (recombinant human IL-23 [3]) was 0.132 nM and 0.08 nM.

B5: Antibody D (antibody, human IgG1, kappa, L234A L235A, V domains shown)
VH: QVQLVQSGAEVKKPGSSVKVSCKASGFTFTDQTIHWVRQAPGQGLEWMGYIYPRDDSPKYNENFKGKVTLTADKSTSTAYMELSSLRSEDTAVYYCAIPDRSGYAWFIYWGQGTLVTVSS
VL: DIQMTQSPSSLSASVGDRVTITCKASRDVAIAVAWYQQKPGKVPKLLLFWASTRHTGVPDRFSGSGSGTDFTLTISSLQPEDLADYYCHQYSSYPFTFGQGTKLEIKR
notes: Humanized 6B8, human IgG1-KO (L234A/L235A) / kappa; also called 6B8-IgG1KO-5 with IgK-65; 6B8CVH-05 / 6B8CVK-65
With B5 the Kd (Human IL-23 no linker) was 0.135 nM, the koff (Human IL-23 no linker) was 4.93e-05 s⁻¹ and the kon (Human IL-23 no linker) was 366000 M⁻¹ s⁻¹. For the same binder, the “Average pg/ml IFN-γ +/- Standard Deviation, human PHA-derived T cell blasts with 1 ng/ml IL-12 (no antibody: 532 +/- 51; unstimulated: 87 +/- 7)” value (human IL-12) was 539 pg/ml IFN-γ, the Kd (cynomologous IL-23) was 0.0159 nM and the koff (cynomologous IL-23) was 3.29e-05 s⁻¹. The kon (cynomologous IL-23) was 2.07e+06 M⁻¹ s⁻¹, the “IC50, IL-23 stimulated IL-17 production” value [1] was 0.133 nM and 0.125 nM and the “IC50, IL-23 stimulated IL-17 production” value (recombinant human IL-23 [2]) was 0.236 nM and 0.225 nM and 0.614 nM and 0.458 nM. The “IC50 … (phospho-STAT3 ELISA)” value (recombinant human IL-23 [3]) was 0.158 nM.
